Experimental findings from patent US20220041744A1 (INNATE PHARMA, published 2022) are described below.

Sequences and labels used below:
T1: human recombinant soluble CD73 protein (human, UniProt P21589 27-547)
T1 construct: also called huCD73; rhCD73
T1 sequence: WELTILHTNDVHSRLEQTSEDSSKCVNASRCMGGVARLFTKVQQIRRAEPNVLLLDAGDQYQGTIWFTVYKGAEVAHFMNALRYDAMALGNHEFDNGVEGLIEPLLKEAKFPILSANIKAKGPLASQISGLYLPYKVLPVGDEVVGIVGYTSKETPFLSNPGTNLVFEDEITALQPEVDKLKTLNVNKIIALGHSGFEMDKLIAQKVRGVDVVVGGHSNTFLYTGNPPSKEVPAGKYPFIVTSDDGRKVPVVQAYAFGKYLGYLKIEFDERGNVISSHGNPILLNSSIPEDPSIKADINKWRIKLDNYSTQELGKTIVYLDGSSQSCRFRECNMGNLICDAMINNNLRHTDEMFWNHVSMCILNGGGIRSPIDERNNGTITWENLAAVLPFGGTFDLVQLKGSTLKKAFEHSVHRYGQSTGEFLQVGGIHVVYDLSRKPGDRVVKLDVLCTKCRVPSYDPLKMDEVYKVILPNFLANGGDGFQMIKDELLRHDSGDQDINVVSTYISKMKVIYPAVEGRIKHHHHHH

B1: H2L2 (antibody, human IgG1, V domains shown)
VH: QIQLVQSGAEVKKPGASVKVSCKASGYAFTSYNMYWVRQAPGQSLEWMGYIDPYNGGSSYNLTFKGRVTITVDKSASTAYMELSSLRSEDTAVYYCARGYGNYKAWFAYWGQGTLVTVSS
VL: DIQMTQSPSSLSASVGDRVTITCKASQSVSNDVAWYQQKPGKAPKLLIYYASTRYTGVPDRFSGSGYGTDFTFTISSLQPEDIATYYCQQDYSSLTFGQGTKLEIK
B2: H0L3 (antibody, human IgG1, V domains shown)
VH: QVQLVQSGAEVKKPGASVKVSCKASGYTFTSYNMYWVRQAPGQRLEWMGYIDPYNGGSSYNLTFKGRVTITRDTSASTAYMELSSLRSEDTAVYYCARGYGNYKAWFAYWGQGTLVTVSS
VL: DVQMTQSPSSLSASVGDRVTITCKASQSVSNDVAWYQQKPGKAPKLLIYYASTRYTGVPDRFSGSGYGTDFTFTISSLQPEDIATYYCQQDYSSLTFGQGTKLEIK
notes: H0 VH limits counted by alignment with H1
B3: H4L2 (antibody, human IgG1, V domains shown)
VH: QIQLVQSGAEVKKPGASVKVSCKASGYAFASYNMYWVRQAPGQSLEWIGYIDPYNGGSSYNLTFKGKATLTVDKSASTAYMELSSLRSEDTAVYYCARGYGNYKAWFAYWGQGTLVTVSS
VL: DIQMTQSPSSLSASVGDRVTITCKASQSVSNDVAWYQQKPGKAPKLLIYYASTRYTGVPDRFSGSGYGTDFTFTISSLQPEDIATYYCQQDYSSLTFGQGTKLEIK
B4: H4L3 (antibody, human IgG1, V domains shown)
VH: QIQLVQSGAEVKKPGASVKVSCKASGYAFASYNMYWVRQAPGQSLEWIGYIDPYNGGSSYNLTFKGKATLTVDKSASTAYMELSSLRSEDTAVYYCARGYGNYKAWFAYWGQGTLVTVSS
VL: DVQMTQSPSSLSASVGDRVTITCKASQSVSNDVAWYQQKPGKAPKLLIYYASTRYTGVPDRFSGSGYGTDFTFTISSLQPEDIATYYCQQDYSSLTFGQGTKLEIK
B5: H3L2 (antibody, human IgG1, V domains shown)
VH: QIQLVQSGAEVKKPGASVKVSCKASGYAFTSYNMYWVRQAPGQSLEWIGYIDPYNGGSSYNLTFKGKATITVDKSASTAYMELSSLRSEDTAVYYCARGYGNYKAWFAYWGQGTLVTVSS
VL: DIQMTQSPSSLSASVGDRVTITCKASQSVSNDVAWYQQKPGKAPKLLIYYASTRYTGVPDRFSGSGYGTDFTFTISSLQPEDIATYYCQQDYSSLTFGQGTKLEIK
B6: H3L4 (antibody, human IgG1, V domains shown)
VH: QIQLVQSGAEVKKPGASVKVSCKASGYAFTSYNMYWVRQAPGQSLEWIGYIDPYNGGSSYNLTFKGKATITVDKSASTAYMELSSLRSEDTAVYYCARGYGNYKAWFAYWGQGTLVTVSS
VL: DVQMTQSPSSLSASVGDRVTITCKASQSVSNDVAWYQQKPGKAPKLLIYYASTRYTGVPDRFSGSGYGTDFTFTISSLQPEDIATYFCQQDYSSLTFGQGTKLEIK
B7: H1L3 (antibody, human IgG1, V domains shown)
VH: QIQLVQSGAEVKKPGASVKVSCKASGYTFTSYNMYWVRQAPGQRLEWMGYIDPYNGGSSYNLTFKGRVTITRDKSASTAYMELSSLRSEDTAVYYCARGYGNYKAWFAYWGQGTLVTVSS
VL: DVQMTQSPSSLSASVGDRVTITCKASQSVSNDVAWYQQKPGKAPKLLIYYASTRYTGVPDRFSGSGYGTDFTFTISSLQPEDIATYYCQQDYSSLTFGQGTKLEIK
B8: H0L1 (antibody, human IgG1, V domains shown)
VH: QVQLVQSGAEVKKPGASVKVSCKASGYTFTSYNMYWVRQAPGQRLEWMGYIDPYNGGSSYNLTFKGRVTITRDTSASTAYMELSSLRSEDTAVYYCARGYGNYKAWFAYWGQGTLVTVSS
VL: DIQMTQSPSSLSASVGDRVTITCKASQSVSNDVAWYQQKPGKAPKLLIYYASTRYTGVPSRFSGSGYGTDFTFTISSLQPEDIATYYCQQDYSSLTFGQGTKLEIK
notes: as for B2
B9: H1L4 (antibody, human IgG1, V domains shown)
VH: QIQLVQSGAEVKKPGASVKVSCKASGYTFTSYNMYWVRQAPGQRLEWMGYIDPYNGGSSYNLTFKGRVTITRDKSASTAYMELSSLRSEDTAVYYCARGYGNYKAWFAYWGQGTLVTVSS
VL: DVQMTQSPSSLSASVGDRVTITCKASQSVSNDVAWYQQKPGKAPKLLIYYASTRYTGVPDRFSGSGYGTDFTFTISSLQPEDIATYFCQQDYSSLTFGQGTKLEIK
B10: H3L3 (antibody, human IgG1, V domains shown)
VH: QIQLVQSGAEVKKPGASVKVSCKASGYAFTSYNMYWVRQAPGQSLEWIGYIDPYNGGSSYNLTFKGKATITVDKSASTAYMELSSLRSEDTAVYYCARGYGNYKAWFAYWGQGTLVTVSS
VL: DVQMTQSPSSLSASVGDRVTITCKASQSVSNDVAWYQQKPGKAPKLLIYYASTRYTGVPDRFSGSGYGTDFTFTISSLQPEDIATYYCQQDYSSLTFGQGTKLEIK
B11: H4L0 (antibody, human IgG1, V domains shown)
VH: QIQLVQSGAEVKKPGASVKVSCKASGYAFASYNMYWVRQAPGQSLEWIGYIDPYNGGSSYNLTFKGKATLTVDKSASTAYMELSSLRSEDTAVYYCARGYGNYKAWFAYWGQGTLVTVSS
VL: DIQMTQSPSSLSASVGDRVTITCKASQSVSNDVAWYQQKPGKAPKLLIYYASTRYTGVPSRFSGSGSGTDFTFTISSLQPEDIATYYCQQDYSSLTFGQGTKLEIK
notes: L0 VL limits counted by alignment with L1
B12: H0L2 (antibody, human IgG1, V domains shown)
VH: QVQLVQSGAEVKKPGASVKVSCKASGYTFTSYNMYWVRQAPGQRLEWMGYIDPYNGGSSYNLTFKGRVTITRDTSASTAYMELSSLRSEDTAVYYCARGYGNYKAWFAYWGQGTLVTVSS
VL: DIQMTQSPSSLSASVGDRVTITCKASQSVSNDVAWYQQKPGKAPKLLIYYASTRYTGVPDRFSGSGYGTDFTFTISSLQPEDIATYYCQQDYSSLTFGQGTKLEIK
notes: as for B2
B13: H0L0 (antibody, human IgG1, V domains shown)
VH: QVQLVQSGAEVKKPGASVKVSCKASGYTFTSYNMYWVRQAPGQRLEWMGYIDPYNGGSSYNLTFKGRVTITRDTSASTAYMELSSLRSEDTAVYYCARGYGNYKAWFAYWGQGTLVTVSS
VL: DIQMTQSPSSLSASVGDRVTITCKASQSVSNDVAWYQQKPGKAPKLLIYYASTRYTGVPSRFSGSGSGTDFTFTISSLQPEDIATYYCQQDYSSLTFGQGTKLEIK
notes: variable-domain limits counted by alignment with H1 and L1
B14: H0L4 (antibody, human IgG1, V domains shown)
VH: QVQLVQSGAEVKKPGASVKVSCKASGYTFTSYNMYWVRQAPGQRLEWMGYIDPYNGGSSYNLTFKGRVTITRDTSASTAYMELSSLRSEDTAVYYCARGYGNYKAWFAYWGQGTLVTVSS
VL: DVQMTQSPSSLSASVGDRVTITCKASQSVSNDVAWYQQKPGKAPKLLIYYASTRYTGVPDRFSGSGYGTDFTFTISSLQPEDIATYFCQQDYSSLTFGQGTKLEIK
notes: as for B2
B15: H2L4 (antibody, human IgG1, V domains shown)
VH: QIQLVQSGAEVKKPGASVKVSCKASGYAFTSYNMYWVRQAPGQSLEWMGYIDPYNGGSSYNLTFKGRVTITVDKSASTAYMELSSLRSEDTAVYYCARGYGNYKAWFAYWGQGTLVTVSS
VL: DVQMTQSPSSLSASVGDRVTITCKASQSVSNDVAWYQQKPGKAPKLLIYYASTRYTGVPDRFSGSGYGTDFTFTISSLQPEDIATYFCQQDYSSLTFGQGTKLEIK
B16: H2L3 (antibody, human IgG1, V domains shown)
VH: QIQLVQSGAEVKKPGASVKVSCKASGYAFTSYNMYWVRQAPGQSLEWMGYIDPYNGGSSYNLTFKGRVTITVDKSASTAYMELSSLRSEDTAVYYCARGYGNYKAWFAYWGQGTLVTVSS
VL: DVQMTQSPSSLSASVGDRVTITCKASQSVSNDVAWYQQKPGKAPKLLIYYASTRYTGVPDRFSGSGYGTDFTFTISSLQPEDIATYYCQQDYSSLTFGQGTKLEIK

A word on the Kd: it is the equilibrium constant for the complex coming apart. By koff is commonly meant the first-order rate constant of dissociation. For orientation: kon means the second-order rate constant of association.

For this experiment, the target named is T1, human recombinant soluble CD73 protein. Nature of the experiment: SPR, Ab captured on Protein A, soluble huCD73 as analyte. The protocol:
SPR measurements were performed on a Biacore™ T200 apparatus at 25° C. Protein-A (GE Healthcare) was immobilized on a Sensor Chip CM5 (GE Healthcare). […] The entire sensorgram sets were fitted using the 1:1 kinetic binding model. Bivalent affinities and kinetic association and dissociation rate constants are calculated.
The binding of the antibodies in Table 2 of Example 1 were tested for binding to human soluble dimeric CD73 proteins and were cloned, produced and purified. Affinity and association and dissociation constants of humanized variants were assessed by SPR analysis.
(In SPR one partner is held on a chip, and binding of the other changes the refractive index at the surface.)
Consider B1, for which the equilibrium dissociation constant (Kd) was 1.3 nM, the dissociation rate constant (koff) stood at 0.000155 s⁻¹ and the on-rate (kon) was 118000 M⁻¹ s⁻¹.
In the same order, the values of B2 are 0.6 nM, 9.49e-05 s⁻¹ and 170000 M⁻¹ s⁻¹.
B3: the Kd turned out to be 0.9 nM, the koff was determined as 7.12e-05 s⁻¹ and the kon turned out to be 77500 M⁻¹ s⁻¹.
Regarding B4, the Kd was 0.7 nM, the dissociation rate constant (koff) came to 7.69e-05 s⁻¹ and the kon is 110000 M⁻¹ s⁻¹.
With B5, the Kd was 1.4 nM, the off-rate constant (koff) was 0.000122 s⁻¹ and the kon is 86600 M⁻¹ s⁻¹.
Regarding B6, the Kd stood at 1 nM, the koff amounted to 8.91e-05 s⁻¹ and the kon was found to be 90400 M⁻¹ s⁻¹.
As for B7, the dissociation constant (Kd) came out at 0.8 nM, the koff is 7.2e-05 s⁻¹ and the association rate constant (kon) was found to be 92600 M⁻¹ s⁻¹.
With B8, the dissociation constant (Kd) worked out at 0.9 nM, the dissociation rate constant (koff) was 0.000127 s⁻¹ and the kon turned out to be 144000 M⁻¹ s⁻¹.
B9: the Kd turned out to be 0.7 nM, the koff was 6.77e-05 s⁻¹ and the on-rate constant (kon) turned out to be 98200 M⁻¹ s⁻¹.
B10: the equilibrium dissociation constant (Kd) turned out to be 1.1 nM, the dissociation rate constant (koff) was found to be 0.000105 s⁻¹ and the kon was 95700 M⁻¹ s⁻¹.
In the case of B11, the Kd was determined as 7.8 nM, the koff was 0.00123 s⁻¹ and the on-rate (kon) came to 158000 M⁻¹ s⁻¹.
As to B12, the dissociation constant (Kd) is 0.7 nM, the koff is 0.000119 s⁻¹ and the kon came to 168000 M⁻¹ s⁻¹.
With B13, the Kd was 65 nM, the dissociation rate constant (koff) was 0.00882 s⁻¹ and the on-rate constant (kon) was determined as 136000 M⁻¹ s⁻¹.
In the same order, the values of B14 are 0.6 nM, 8.65e-05 s⁻¹ and 137000 M⁻¹ s⁻¹.
B15: the Kd was 0.9 nM, the koff is 0.000106 s⁻¹ and the association rate constant (kon) turned out to be 120000 M⁻¹ s⁻¹.
Take B16: the equilibrium dissociation constant (Kd) amounted to 1 nM, the koff is 0.000123 s⁻¹ and the kon was determined as 120000 M⁻¹ s⁻¹.
